This passage reports IC50 results from PMC6274716.

Some targets named below: FHA variant B3 (yeast); FHA variant E1 (yeast); FHA variant H11 (yeast).
What all share (test): ELISA; competition: FHA clone binding to immobilized phosphorylated Akt1 peptide in the presence of free phosphorylated peptide; IC50
In test [1] the target is FHA variant E12 (Akt1-pTBD) (yeast).

Non-standard residues stand in square brackets, D forms with d. *: point of attachment. Biotin = O=C1N[C@H]2[C@H](CS[C@H]2CCCCC(=O)*)N1; pT = C[C@@H](OP(=O)(O)O)[C@H](N)C(=O)O

Regarding Biotin-KDGATMK[pT]FCGTPEY-NH2 (not fully specified (residue 12)) [Akt1-pT308 peptide], the IC50 (usually the point on the concentration scale where inhibition reaches its midpoint) in the test with FHA variant B3 (yeast) was found to be 100 µM; in the test with FHA variant E1 (yeast) it was 1.95 µM; in test [1], 0.045 µM; with FHA variant H11 (yeast), 0.09 µM.
